Source: US20170022287A1 (Chugai, published 2017)

B1: R18 (antibody, V domains shown)
VH: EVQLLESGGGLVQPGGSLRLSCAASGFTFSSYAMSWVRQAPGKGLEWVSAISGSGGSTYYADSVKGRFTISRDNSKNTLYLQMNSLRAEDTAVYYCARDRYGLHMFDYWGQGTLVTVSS
VL: DIQMTQSPSSLSASVGDRVTITCRASQSISSYLNWYQQKPGKAPKLLIYAASSLQSGVPSRFSGSGSGTDFTLTISSLQPEDFATYYCLQFNSFPLTFGGGTKVEIK
notes: Synthetic library clone; Fab on phage in the phage ELISA
B2: R17 (antibody, V domains shown)
VH: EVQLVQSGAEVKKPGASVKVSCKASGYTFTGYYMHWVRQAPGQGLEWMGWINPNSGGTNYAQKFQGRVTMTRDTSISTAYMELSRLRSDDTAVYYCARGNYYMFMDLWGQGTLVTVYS
VL: DIQMTQSPSSLSASVGDRVTITCRASQSISSYLNWYQQKPGKAPKLLIYAASSLQSGVPSRFSGSGSGTDFTLTISSLQPEDFATYYCLQFTSFPLTFGGGTKVEIK
notes: as for B1
B3: R1 (antibody, V domains shown)
VH: EVQLVQSGAEVKKPGASVKVSCKASGYTFTSYYTHWVRQAPGQGLEWMGIINPSGGSTSYAQKFQGRVTMTRDTSTSTVYMELSSLRSEDTAVYYCARGAPEYSSSSDYWGQGTMVTVSS
VL: QSALTQPASVSGSPGQSITISCTGTSSDVGGYNYVSWYQQHPGKAPKLMIYDVSNRPSGVSNRFSGSKSGNTASLTISGLQAEDEADYYCSSYTSSSTRWVFGGGTKLTVL
notes: Naive library clone; Fab on phage in the phage ELISA

Legend:
CRD1 [1] = biological target: T1, CRD1; assay: ELISA, coated CD137-Fc protein 2 µg/mL, antibody 10 or 5 µg/mL, absorbance 620 nm; Non (uncoated well) 0.3465
T1 construct: also called fragmented human CD137-Fc fusion protein CRD1
Method: (§1) Fragmented human CD137-Fc fusion proteins were diluted to 2 μg/mL in an aqueous sodium carbonate solution adjusted to pH9.6. Fifty μL of a diluted fragmented human CD137-Fc fusion protein was added individually to each well of a Nunc MaxiSorp flat-bottom 96 well plate (Nunc). This was allowed to stand at 4° C. overnight or longer, and then the plate was allowed to stand at room temperature for one hour so that the plate has the same temperature as the room temperature. The solution containing the fragmented human CD137-Fc fusion protein was removed by tilting, and each well was washed three times with 300 μL of Wash buffer (TBS containing 0.1% Tween20, TaKaRa). Next, 150 μL of blocking buffer (TBS containing 2% BSA) was added to each well, and this was allowed to stand for one hour or more. The blocking buffer was removed by tilting, and each well was washed three times with Wash Buffer in a similar manner to an earlier step. Then, 50 μL of an antibody solution prepared in advance by dilution with TBS to 10 μg/mL or 5 μg/mL was added to each well. This was subjected to a speed of 600 rpm or so for one hour at room temperature to bind the antibody to the immobilized antigen. […] 100 μL of a secondary antibody solution produced by 1000-fold dilution with TBS containing 0.1% Tween20 was added to each well. For the secondary antibody, ANTIBODY ALKALINE PHOSPHATASE CONJUGATE HUMAN IMMUNOGLOBULIN ABSORBED Goat Anti-Human Kappa Alkaline Phosphate from BIOSOURCE was used in the case of antibodies carrying a Kappa chain, and Human Lambda Light Chain Antibody; Goat anti-Human Lambda Light Chain Antibody Alkaline Phosphatase Conjugated from BETHYL LABORATORIES INC. was used in the case of antibodies carrying a Lambda chain. […] Color development was performed using the BluePhos Microwell kit from KPL. After the chromogenic reaction was stopped using the AP stop solution from KPL, the absorbance was measured at 620 nm on an absorptiometer.

CRD1-3 [2] = biological target: T2, CRD1-3; assay: as above
T2 construct: also called fragmented human CD137-Fc fusion protein CRD1-3
Method: as §1

CRD1-2 [3] = biological target: T3, CRD1-2; assay: as above
T3 construct: also called fragmented human CD137-Fc fusion protein CRD1-2
Method: as §1

CRD2-4 [4] = biological target: T4, CRD2-4; assay: as above
T4 construct: also called fragmented human CD137-Fc fusion protein CRD2-4
Method: as §1

CRD2-3 [5] = biological target: T5, CRD2-3; assay: as above
T5 construct: also called fragmented human CD137-Fc fusion protein CRD2-3
Method: as §1

CRD3-4 [6] = biological target: T6, CRD3-4; assay: as above
T6 construct: also called fragmented human CD137-Fc fusion protein CRD3-4
Method: as §1

[7] = biological target: full-length human CD137-Fc fusion protein (human); assay: as above
Method: as §1

CRD1 [8] = biological target: T1, CRD1; assay: ELISA, coated CD137-Fc protein 2 µg/mL, antibody 10 or 5 µg/mL; absorbance 620 nm divided by that of the uncoated well
Method: as §1

CRD1-3 [9] = biological target: T2, CRD1-3; assay: as above
Method: as §1

CRD1-2 [10] = biological target: T3, CRD1-2; assay: as above
Method: as §1

CRD2-4 [11] = biological target: T4, CRD2-4; assay: as above
Method: as §1

CRD2-3 [12] = biological target: T5, CRD2-3; assay: as above
Method: as §1

CRD3-4 [13] = biological target: T6, CRD3-4; assay: as above
Method: as §1

[14] = biological target: full-length human CD137-Fc fusion protein (human); assay: as above
Method: as §1

CRD1 [15] = biological target: T1, CRD1; assay: ELISA, coated CD137-Fc protein 2 µg/mL, antibody 10 or 5 µg/mL, absorbance 620 nm; Non (uncoated well) 0.166
Method: as §1

CRD1-3 [16] = biological target: T2, CRD1-3; assay: as above
Method: as §1

CRD1-2 [17] = biological target: T3, CRD1-2; assay: as above
Method: as §1

CRD2-4 [18] = biological target: T4, CRD2-4; assay: as above
Method: as §1

CRD2-3 [19] = biological target: T5, CRD2-3; assay: as above
Method: as §1

CRD3-4 [20] = biological target: T6, CRD3-4; assay: as above
Method: as §1

[21] = biological target: full-length human CD137-Fc fusion protein (human); assay: as above
Method: as §1

CRD1 [22] = biological target: T1, CRD1; assay: ELISA, coated CD137-Fc protein 2 µg/mL, antibody 10 or 5 µg/mL, absorbance 620 nm; Non (uncoated well) 0.065
Method: as §1

CRD1-2 [23] = biological target: T3, CRD1-2; assay: as above
Method: as §1

CRD2-4 [24] = biological target: T4, CRD2-4; assay: as above
Method: as §1

CRD2-3 [25] = biological target: T5, CRD2-3; assay: as above
Method: as §1

CRD3-4 [26] = biological target: T6, CRD3-4; assay: as above
Method: as §1

[27] = biological target: full-length human CD137-Fc fusion protein (human); assay: as above
Method: as §1

T1 sequence (chain, as listed by the source limits assumed): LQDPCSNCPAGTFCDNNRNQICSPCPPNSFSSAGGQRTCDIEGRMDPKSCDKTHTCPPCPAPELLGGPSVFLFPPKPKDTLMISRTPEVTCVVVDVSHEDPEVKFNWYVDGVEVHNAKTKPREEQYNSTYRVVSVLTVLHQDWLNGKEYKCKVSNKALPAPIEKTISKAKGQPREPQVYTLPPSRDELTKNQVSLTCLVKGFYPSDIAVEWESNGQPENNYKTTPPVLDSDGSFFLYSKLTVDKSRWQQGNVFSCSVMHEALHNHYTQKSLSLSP
T4 sequence (chain, as listed by the source limits assumed): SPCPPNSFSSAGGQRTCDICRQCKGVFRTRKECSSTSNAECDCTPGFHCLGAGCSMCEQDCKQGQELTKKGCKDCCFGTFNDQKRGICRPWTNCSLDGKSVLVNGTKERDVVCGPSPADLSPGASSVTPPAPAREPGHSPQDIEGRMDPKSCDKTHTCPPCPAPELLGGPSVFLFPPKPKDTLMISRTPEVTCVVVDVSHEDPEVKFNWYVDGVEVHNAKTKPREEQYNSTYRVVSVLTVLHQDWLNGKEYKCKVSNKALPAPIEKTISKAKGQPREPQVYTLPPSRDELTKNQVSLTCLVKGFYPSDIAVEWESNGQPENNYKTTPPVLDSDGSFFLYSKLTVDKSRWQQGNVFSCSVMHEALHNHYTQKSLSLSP
T5 sequence (chain, as listed by the source limits assumed): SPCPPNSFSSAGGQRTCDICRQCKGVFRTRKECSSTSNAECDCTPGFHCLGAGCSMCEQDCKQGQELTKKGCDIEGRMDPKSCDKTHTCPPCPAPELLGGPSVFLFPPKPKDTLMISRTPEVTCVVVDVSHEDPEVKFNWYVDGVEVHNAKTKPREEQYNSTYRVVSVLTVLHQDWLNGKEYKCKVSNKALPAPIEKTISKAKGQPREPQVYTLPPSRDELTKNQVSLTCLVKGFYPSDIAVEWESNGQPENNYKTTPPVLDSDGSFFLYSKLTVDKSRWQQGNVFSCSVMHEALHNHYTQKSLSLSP
T2 sequence (chain, as listed by the source limits assumed): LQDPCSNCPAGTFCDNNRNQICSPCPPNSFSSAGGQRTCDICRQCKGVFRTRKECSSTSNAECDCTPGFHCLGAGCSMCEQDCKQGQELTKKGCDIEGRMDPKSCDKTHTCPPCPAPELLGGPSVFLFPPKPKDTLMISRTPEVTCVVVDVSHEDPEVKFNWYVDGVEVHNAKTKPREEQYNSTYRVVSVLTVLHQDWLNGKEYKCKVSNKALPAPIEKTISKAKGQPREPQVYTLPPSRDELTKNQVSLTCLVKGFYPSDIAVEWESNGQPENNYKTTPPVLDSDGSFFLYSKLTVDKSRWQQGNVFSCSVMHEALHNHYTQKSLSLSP
T6 sequence (chain, as listed by the source limits assumed): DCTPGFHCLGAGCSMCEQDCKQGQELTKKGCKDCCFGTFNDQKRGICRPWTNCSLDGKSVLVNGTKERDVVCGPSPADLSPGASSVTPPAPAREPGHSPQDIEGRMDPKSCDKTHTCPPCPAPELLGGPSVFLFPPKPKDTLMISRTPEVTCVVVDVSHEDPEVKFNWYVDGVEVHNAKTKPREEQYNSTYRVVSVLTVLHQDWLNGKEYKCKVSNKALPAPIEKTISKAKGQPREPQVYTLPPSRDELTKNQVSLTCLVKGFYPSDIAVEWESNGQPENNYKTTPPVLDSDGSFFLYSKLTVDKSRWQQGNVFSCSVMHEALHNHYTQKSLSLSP
Chain of full-length human CD137-Fc fusion protein (human) (chain, as listed by the source limits assumed): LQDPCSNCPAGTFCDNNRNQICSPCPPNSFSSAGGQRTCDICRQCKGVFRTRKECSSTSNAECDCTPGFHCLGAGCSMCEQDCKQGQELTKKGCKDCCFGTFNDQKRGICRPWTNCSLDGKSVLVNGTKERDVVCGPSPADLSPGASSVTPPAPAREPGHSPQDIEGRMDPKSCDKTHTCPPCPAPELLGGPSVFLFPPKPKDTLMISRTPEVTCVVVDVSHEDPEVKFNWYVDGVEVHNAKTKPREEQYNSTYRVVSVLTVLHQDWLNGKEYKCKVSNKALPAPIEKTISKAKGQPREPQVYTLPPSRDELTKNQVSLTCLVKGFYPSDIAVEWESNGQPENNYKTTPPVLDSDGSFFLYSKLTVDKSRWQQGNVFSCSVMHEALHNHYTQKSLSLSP
T3 sequence (chain, as listed by the source limits assumed): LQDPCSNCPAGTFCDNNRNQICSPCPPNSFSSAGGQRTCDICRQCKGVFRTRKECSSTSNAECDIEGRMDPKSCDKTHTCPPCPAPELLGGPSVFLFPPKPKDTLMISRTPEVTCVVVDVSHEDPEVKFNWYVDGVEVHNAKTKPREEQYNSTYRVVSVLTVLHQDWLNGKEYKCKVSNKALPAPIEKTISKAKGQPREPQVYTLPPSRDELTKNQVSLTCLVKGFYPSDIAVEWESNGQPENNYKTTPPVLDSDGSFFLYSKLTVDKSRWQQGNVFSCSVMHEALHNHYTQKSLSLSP

Binder | Ratio with respect to Non-Coating (CRD1 [8]) | Ratio with respect to Non-Coating (CRD1-3 [9]) | Ratio with respect to Non-Coating (CRD1-2 [10]) | Ratio with respect to Non-Coating (CRD2-4 [11]) | Ratio with respect to Non-Coating (CRD2-3 [12]) | Ratio with respect to Non-Coating (CRD3-4 [13]) | Ratio with respect to Non-Coating [14] | further results
B1 | 1.2 | 6.6 | 1.2 | 6.6 | 7.2 | 7.7 | 5.8 | ELISA color development level (CRD1 [1]): 0.4; ELISA color development level (CRD1-3 [2]): 2.29; ELISA color development level (CRD1-2 [3]): 0.419; ELISA color development level (CRD2-4 [4]): 2.27; ELISA color development level (CRD2-3 [5]): 2.49; ELISA color development level (CRD3-4 [6]): 2.65; ELISA color development level [7]: 2.03
B2 | 1.2 | 12.4 | 1 | 11.6 | 14.7 | 14.9 | 8.1 | ELISA color development level (CRD1 [15]): 0.197; ELISA color development level (CRD1-3 [16]): 2.05; ELISA color development level (CRD1-2 [17]): 0.169; ELISA color development level (CRD2-4 [18]): 1.92; ELISA color development level (CRD2-3 [19]): 2.44; ELISA color development level (CRD3-4 [20]): 2.47; ELISA color development level [21]: 1.34
B3 | 1.9 |  | 13.3 | 1.4 | 1.8 | 1.3 | 27.6 | ELISA color development level (CRD1 [22]): 0.123; ELISA color development level (CRD1-2 [23]): 0.865; ELISA color development level (CRD2-4 [24]): 0.0935; ELISA color development level (CRD2-3 [25]): 0.117; ELISA color development level (CRD3-4 [26]): 0.0875; ELISA color development level [27]: 1.79
